Test results from the supplement of paper PMC10567573.
± gives the standard deviation.

Assay: protein stability index of a GFP-peptide fusion (GPS, HEK-293T) (PSI 1-6); higher = more stable
Details: c terminus: a fixed tail appended
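Further: 24-mer peptide tiles fused after GFP, lentivirally expressed, FACS-sorted into six equal bins by GFP/DsRed ratio, decoded by Illumina sequencing, PSI is the read-weighted mean bin number.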

| Sequence | protein stability index (treatment: DMSO) | protein stability index (treatment: MLN4924 1 uM, 8 h) |
| --- | --- | --- |
| FLGLGAPNCLSMGSRCLKTFEVPE [ZBED1] | 2.3 ± 0.2 | 2.06 ± 0.28 |
| GERETRTPEELTILGETQEEEDEI [CLCN6] | 5.79 ± 0.11 | 5.64 ± 0.37 |
| FQNRRMKHKRQMQDPQLHSPFSGS [VENTX] | 3.3 ± 0.38 | 3.48 ± 0.31 |
| LENREEPWVKELQDSKEMKQLLDS [ZNF449] | 5.49 ± 0.18 | 5.36 ± 0.23 |
| ENVVHGHILAAEQLSRDSTLGGKA [NSDHL] | 4.52 ± 0.11 | 4.6 ± 0.3 |
| VRLQSQRPSMASELMPSSRLWSLS [SLC25A39] | 2.64 ± 0.32 | 2.58 ± 0.17 |
| AQDLGLKMTDLLSRRLQLGSEENG [PCDHGC5] | 3.94 ± 0.22 | 3.77 ± 0.19 |
| TEKLKANAESSKTWLKGKFTELRL [TRIM14] | 2.53 ± 0.43 | 2.48 ± 0.42 |
| CQSGYFSSMFSGSWKESSMNIIEL [GMCL1] | 2.53 ± 0.37 | 2.34 ± 0.77 |
| NIMNKEAFMNQEITKAFHVRKANR [RHOBTB1] | 3.35 ± 0.18 | 3.45 ± 0.34 |
| ISFTLYLIGFCMFVLSLVKKHYRL [CDS2] | 2.29 ± 0.48 | 2.44 ± 0.53 |
| AVDGILHMFTPKLDKMLDPQVWRE [SLC6A17] | 2.27 ± 0.34 | 2.53 ± 0.25 |
| CDYSQYFKTIEELRDKIMATTIDN [KRT15] | 3.28 ± 0.12 | 3.22 ± 0.17 |
| ILELLVLEQFLAILPKELQAWVQK [ZNF396] | 2.67 ± 0.24 | 2.65 ± 0.5 |
| TDGGGWLVFQRRMDGQTDFWRDWE [TNXB] | 2.33 ± 0.53 | 2.25 ± 0.65 |
| SRYRSLRPNRQLGSMVEIAKQLQA [TRIM39] | 2.74 ± 0.28 | 2.92 ± 0.34 |
| WVFHHYVSTFLSGVMLTWPDGLMY [TMEM120A] | 3.14 ± 0.17 | 3.11 ± 0.24 |
| FFASGFKRAFKIKDFANTIPGHGG [CDS2] | 1.95 ± 0.11 | 2.33 ± 0.2 |
| QHESGQSSSRGSSHCDSPSPQEDG [BNIP3L] | 5.62 ± 0.36 | 5.5 ± 0.16 |
| YSNTDANILFYVVGLRNTLTRIRK [GLT8D2] | 2.3 ± 0.61 | 2.45 ± 0.3 |
| QQELRELRRELELLGRERDRVQVE [PRPH] | 4.06 ± 0.52 | 4.39 ± 0.29 |
| RCLIWGRKPKVIECSYTSADGQRH [DHCR7] | 2.61 ± 0.33 | 2.77 ± 0.33 |
| SSYSSCYSFGSGGGYGSSFGGVDG [KRT17] | 2.69 ± 0.38 | 2.53 ± 0.2 |

| Sequence | protein stability index (treatment: DMSO) | protein stability index (treatment: MLN4924 1 uM, 8 h) |
| --- | --- | --- |
| TGTVHRIDNTTVIYNSNIFTDPFF [KCNA1] | 2.89 ± 0.27 | 3.05 ± 0.2 |
| KKKKDKEKEKEKHKVKAEEEKKAK [BRD3] | 5.2 ± 0.3 | 5.66 ± 0.13 |
| FQTLMFLVRDWSFPYEYSYGLQGG [ATL3] | 3.88 ± 1 | 3.15 ± 0.28 |
| LLFPEEEATNGREGLLRFSSWPFS [AUP1] | 2.58 ± 0.23 | 2.51 ± 0.21 |
| NAPNSLGVSALCAICGDRATGKHY [HNF4A] | 2.84 ± 0.12 | 3.2 ± 0.15 |
| NSNQATDIMETSGWKSMIQSHPHL [SPOPL] | 3.34 ± 0.22 | 3.48 ± 0.21 |
| QKFDTLYAILDEKKSELLQRITQE [TRIM63] | 3.11 ± 0.095 | 3.21 ± 0.29 |
| EDVEDHYEMGEELGSGQFAIVRKC [DAPK3] | 5.06 ± 0.099 | 5.3 ± 0.35 |
| VTPEAKDLINKMLTINPAKRITAS [CAMK2D] | 3.29 ± 0.29 | 3.33 ± 0.2 |
| GLEALAGGDLMPAPADPTAREGLA [FCHO1] | 5.2 ± 0.15 | 5.23 ± 0.21 |
| PPRSDTIANYELVYKDGEHGEEQR [PTPRD] | 5.48 ± 0.21 | 5.57 ± 0.14 |
| KDNEFTSKPWHWPINYQGLRFSGV [POMT2] | 2.23 ± 0.23 | 2.42 ± 0.22 |
| SPRRSLYKLVGSPPWKEAFRQRCL [RPAIN] | 2.27 ± 0.26 | 2.4 ± 0.23 |
| TSILSRLPPEALTAPSGGQWGAEP [RNF208] | 3.94 ± 0.14 | 4.05 ± 0.11 |
| DVAVHMPCLGHTFNAGIQQAFQLP [ZBED1] | 2.53 ± 0.36 | 2.8 ± 0.36 |
| QQNIPSTLLQDHENQRLFEMLGRK [WAS] | 4.32 ± 0.17 | 4.25 ± 0.24 |
| CAGKAKRSGGHAPRVRELLLDALS [ESR2] | 2.38 ± 0.29 | 2.52 ± 0.25 |
| HVGELIIWDALDWTMQAYERNFWD [WDR41] | 2.33 ± 0.26 | 2.25 ± 0.26 |
| LLSIIATVMILPVTHTEISPEQQF [TMEM175] | 3.47 ± 0.95 | 3.02 ± 0.35 |
| DLSGRRLRDVNHEKAMAEWVKQQA [SDE2] | 4.24 ± 0.2 | 4.13 ± 0.37 |
| YTGEIKISENLDYEETGFYEIEIQ [PCDHGA10] | 2.97 ± 0.18 | 2.87 ± 0.46 |
| FTQPQQTSFALERNLRTQQEIEDK [C8orf76] | 4.87 ± 0.37 | 4.9 ± 0.24 |
